Data taken from patent publication US11672873 (dated 2023).

T1: soluble B7H4
T1 chain: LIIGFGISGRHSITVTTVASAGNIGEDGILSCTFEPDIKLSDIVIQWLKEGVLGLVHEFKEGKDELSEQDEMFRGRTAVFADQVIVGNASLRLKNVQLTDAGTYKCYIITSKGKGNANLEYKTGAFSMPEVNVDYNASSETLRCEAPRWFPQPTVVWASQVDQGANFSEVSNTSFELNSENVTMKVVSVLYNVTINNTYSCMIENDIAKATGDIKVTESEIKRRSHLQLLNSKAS


What was measured:
soluble B7H4 [1] = biological target: T1, soluble B7H4; experiment: SPR; experiment #1, 20 nM B7-H4
soluble B7H4 [2] = biological target: T1, soluble B7H4; experiment: SPR; experiment #2, 25 nM B7-H4

Kd (soluble B7H4 [1]) | Kd (soluble B7H4 [2]) | Binder
0.079 nM | 0.119 nM | anti-B7-H4 antibody 817 (antibody, V domains shown) VH: EVQLVESGGGLVQPGGSLRLSCAASGFTFSSYAMHWVRQAPGKGLEWVSAISGSGGSTRYADSVKGRFTISRDNSKNTLYLQMNSLRAEDTAVYYCARGRWSKWGFDVWGQGTLVTVSS VL: not shown
0.175 nM | 0.383 nM | anti-B7-H4 antibody 801 (antibody, V domains shown) VH: EVQLVESGGGLVQPGGSLRLSCAASGFTFNSYAMHWVRQAPGKGLEWVSAISGNGGSTRYADSVKGRFTISRDNSKNTLYLQMNSLRAEDTAVYYCARDRFRKVHGFDVWGQGTLVTVSS VL: DIQMTQSPSSLSASVGDRVTITCQASQDISNYLNWYQQKPGKAPKLLIYDASNLETGVPSRFSGSGSGTDFTFTISSLQPEDIATYYCQQDATFPLTFGQGTKVEIK
